By IC50 is commonly meant the point on the concentration scale where inhibition reaches its midpoint. For orientation: Km means the concentration of substrate that gives half-maximal velocity. A word on the kcat: it is the maximal rate divided by the concentration of active sites. The kcat/Km is the second-order rate constant that governs catalysis at low substrate concentration.

The results in this text go back to PMC9883682, “Fatty acids negatively regulate platelet function through formation of noncanonical 15‐lipoxygenase‐derived eicosanoids” (Pharmacology Research & Perspectives, 2023).

Type in all cases: biochemical
Series [1] has as its target T1, 12‐LOX (Homo sapiens, UniProt P18054).
T1 construct: gene ALOX12
T1 sequence (P18054 1-663): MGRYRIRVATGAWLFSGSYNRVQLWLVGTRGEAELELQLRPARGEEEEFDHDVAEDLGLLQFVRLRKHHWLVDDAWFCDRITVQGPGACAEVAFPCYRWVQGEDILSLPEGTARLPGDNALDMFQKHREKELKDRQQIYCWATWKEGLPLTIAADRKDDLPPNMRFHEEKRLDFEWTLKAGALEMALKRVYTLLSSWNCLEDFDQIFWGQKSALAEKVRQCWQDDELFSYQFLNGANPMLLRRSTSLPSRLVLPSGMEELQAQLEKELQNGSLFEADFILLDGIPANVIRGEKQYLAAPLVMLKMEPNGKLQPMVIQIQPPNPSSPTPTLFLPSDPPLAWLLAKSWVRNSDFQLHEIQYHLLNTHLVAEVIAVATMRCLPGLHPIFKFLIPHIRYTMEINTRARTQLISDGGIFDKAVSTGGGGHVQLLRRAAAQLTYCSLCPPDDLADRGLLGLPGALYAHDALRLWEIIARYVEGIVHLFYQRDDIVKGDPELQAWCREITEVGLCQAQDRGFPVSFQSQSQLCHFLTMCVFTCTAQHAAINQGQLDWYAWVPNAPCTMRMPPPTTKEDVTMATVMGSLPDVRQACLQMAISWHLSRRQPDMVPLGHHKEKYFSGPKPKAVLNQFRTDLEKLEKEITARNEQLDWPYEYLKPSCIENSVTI
The series is described as follows: inhibition of purified recombinant 12-LOX with […] AA as substrate.

Substrate in series [2]: CC/C=C\C[C@@H](/C=C/C=C\C/C=C\C/C=C\CCCC(=O)O)OO
The series is described as follows: steady-state UV kinetics with purified human 12-LOX (kM); LC-MS product profile. The following applies: also described as a […]‐LOX allosteric regulator that affects secondary product formation.

Substrate in series [3]: CCCCC[C@@H](/C=C/C=C\C/C=C\CCCCCCC(=O)O)OO
Described as above.

Substrate in series [4]: CCCCC[C@@H](/C=C/C=C\C/C=C\C/C=C\CCCC(=O)O)OO
Described as above.

Substrate in series [5]: CC/C=C\C/C=C\C/C=C\C/C=C\C/C=C\CCCC(=O)O
The series is described as follows: steady-state UV kinetics with purified human 12-LOX (kM).

Substrate in series [6]: CCCCC/C=C\C/C=C\C/C=C\CCCCCCC(=O)O
The series is described as above.

Substrate in series [7]: CCCCC/C=C\C/C=C\C/C=C\C/C=C\CCCC(=O)O
Described as above.

With `CCCCC[C@H](O)/C=C/C=C\C/C=C\C/C=C\CCCC(=O)O` [15‐HETE], in series [1], the IC50 was determined as 46 ± 19 µM.
In the case of `CCCCC[C@H](O)/C=C/C=C\C/C=C\CCCCCCC(=O)O` [15‐HETrE], the IC50 in series [1] stood at 105 ± 55 µM.
Still for that read-out and setting: as for `CC/C=C\C[C@H](O)/C=C/C=C\C/C=C\C/C=C\CCCC(=O)O` [15‐HEPE], the figure is 142 ± 11 µM.

B1: 12‐LOX (Homo sapiens) (protein)
chain: MGRYRIRVATGAWLFSGSYNRVQLWLVGTRGEAELELQLRPARGEEEEFDHDVAEDLGLLQFVRLRKHHWLVDDAWFCDRITVQGPGACAEVAFPCYRWVQGEDILSLPEGTARLPGDNALDMFQKHREKELKDRQQIYCWATWKEGLPLTIAADRKDDLPPNMRFHEEKRLDFEWTLKAGALEMALKRVYTLLSSWNCLEDFDQIFWGQKSALAEKVRQCWQDDELFSYQFLNGANPMLLRRSTSLPSRLVLPSGMEELQAQLEKELQNGSLFEADFILLDGIPANVIRGEKQYLAAPLVMLKMEPNGKLQPMVIQIQPPNPSSPTPTLFLPSDPPLAWLLAKSWVRNSDFQLHEIQYHLLNTHLVAEVIAVATMRCLPGLHPIFKFLIPHIRYTMEINTRARTQLISDGGIFDKAVSTGGGGHVQLLRRAAAQLTYCSLCPPDDLADRGLLGLPGALYAHDALRLWEIIARYVEGIVHLFYQRDDIVKGDPELQAWCREITEVGLCQAQDRGFPVSFQSQSQLCHFLTMCVFTCTAQHAAINQGQLDWYAWVPNAPCTMRMPPPTTKEDVTMATVMGSLPDVRQACLQMAISWHLSRRQPDMVPLGHHKEKYFSGPKPKAVLNQFRTDLEKLEKEITARNEQLDWPYEYLKPSCIENSVTI
With B1, the Michaelis-Menten constant (Km) in series [2] worked out at 9.2 ± 1 µM; in series [3], 11 ± 1 µM; in series [4], 5.8 ± 0.4 µM; in series [5], 1 ± 0.2 µM; in series [6], 2.5 ± 0.2 µM; in series [7], 0.49 ± 0.07 µM. Also, the kcat was 0.93 ± 0.06 s⁻¹ in series [2]; 0.96 ± 0.05 s⁻¹ in series [3]; 1.5 ± 0.05 s⁻¹ in series [4]; 9 ± 0.5 s⁻¹ in series [5]; 12 ± 0.3 s⁻¹ in series [6]; 11 ± 0.2 s⁻¹ in series [7]. Also, the kcat/Km in series [2] worked out at 100000 ± 8000 M⁻¹ s⁻¹; in series [3], 86000 ± 4000 M⁻¹ s⁻¹; in series [4], 260000 ± 1000 M⁻¹ s⁻¹; in series [5], 8.7e+06 ± 1.2e+06 M⁻¹ s⁻¹; in series [6], 4.9e+06 ± 300000 M⁻¹ s⁻¹; in series [7] it was 2.2e+07 ± 3e+06 M⁻¹ s⁻¹.
